For test [1], the target named is CD4-Sho1-SH3-I49A (MYTH bait) (S. cerevisiae). Put plainly: two-hybrid.
Test [2] has as its target CD4-Sho1-SH3-ΔAY (MYTH bait) (S. cerevisiae) (UniProt P40073). Kind of test: two-hybrid.
Sequence of UniProt P40073 (P40073 298-367, stated change not applied): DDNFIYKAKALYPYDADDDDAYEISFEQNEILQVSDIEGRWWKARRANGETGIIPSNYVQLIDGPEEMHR

Take “Fps1-N (N-terminal soluble domain of Fps1p, NubG MYTH prey) (from UniProt P23900 1-255) (domain or fragment)”: the fold change relative to wildtype Sho1p SH3 (β-galactosidase, Miller units) amounted to 0.2 fold in test [1] and 0.3 fold in test [2].

B1: NubG-Pbs2 (full-length Pbs2p MYTH prey) (natural protein)
chain: MEDKFANLSLHEKTGKSSIQLNEQTGSDNGSAVKRTSSTSSHYNNINADLHARVKAFQEQRALKRSASVGSNQSEQDKGSSQSPKHIQQIVNKPLPPLPVAGSSKVSQRMSSQVVQASSKSTLKNVLDNQETQNITDVNINIDTTKITATTIGVNTGLPATDITPSVSNTASATHKAQLLNPNRRAPRRPLSTQHPTRPNVAPHKAPAIINTPKQSLSARRGLKLPPGGMSLKMPTKTAQQPQQFAPSPSNKKHIETLSNSKVVEGKRSNPGSLINGVQSTSTSSSTEGPHDTVGTTPRTGNSNNSSNSGSSGGGGLFANFSKYVDIKSGSLNFAGKLSLSSKGIDFSNGSSSRITLDELEFLDELGHGNYGNVSKVLHKPTNVIMATKEVRLELDEAKFRQILMELEVLHKCNSPYIVDFYGAFFIEGAVYMCMEYMDGGSLDKIYDESSEIGGIDEPQLAFIANAVIHGLKELKEQHNIIHRDVKPTNILCSANQGTVKLCDFGVSGNLVASLAKTNIGCQSYMAPERIKSLNPDRATYTVQSDIWSLGLSILEMALGRYPYPPETYDNIFSQLSAIVDGPPPRLPSDKFSSDAQDFVSLCLQKIPERRPTYAALTEHPWLVKYRNQDVHMSEYITERLERRNKILRERGENGLSKNVPALHMGGL
As to B1, the fold change relative to wildtype Sho1p SH3 (β-galactosidase, Miller units) in test [2] turned out to be 0.5 fold.

For the origin of these results see publication PMC5331858.
